Consider 8 molecules from US20040126856A1, “Factor ixa: factor Vllla interaction and methods therefor” (priority 2004, published 2004).

The target in data set [1] is T1, A2 subunit of factor VIIIa (Homo sapiens, UniProt P00451).
T1 construct: cleaved by thrombin at R372-S373, R740-S741, and R1689-S1690 to yield factor VIIIa
T1 sequence (P00451 392-759): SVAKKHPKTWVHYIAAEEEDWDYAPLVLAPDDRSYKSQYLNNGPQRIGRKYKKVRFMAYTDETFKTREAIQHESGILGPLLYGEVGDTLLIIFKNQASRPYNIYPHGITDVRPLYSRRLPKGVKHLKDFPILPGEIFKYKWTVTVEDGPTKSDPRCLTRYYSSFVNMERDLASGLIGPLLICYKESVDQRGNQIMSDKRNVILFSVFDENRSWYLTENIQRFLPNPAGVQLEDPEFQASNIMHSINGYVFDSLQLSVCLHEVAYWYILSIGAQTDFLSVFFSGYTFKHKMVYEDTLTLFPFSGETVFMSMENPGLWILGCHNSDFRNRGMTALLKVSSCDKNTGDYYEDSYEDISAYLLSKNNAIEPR
Description: Apparent KdA2 of dEGR-IXa proteins: inhibition of IXaWT:A2 subunit interaction in the tenase system. In kind it is biochemical. Particulars: 100 nM IXaWT, 30 nM A2 subunit, 250 nM factor X, 25 μM PL; from IC50 by Eq. 3 (FIG. 3); read-out: Apparent KdA2. On the procedure:
Determination of KdA2 of Binding of dEGR-IXa Proteins to A2 Subunit.
The apparent Kd (termed KdA2) for binding of each dEGR-IXa protein to the A2 subunit was determined by its ability to inhibit factor IXaWT:A2 subunit interaction in the tenase complex as described earlier for intact factor VIIIa (Mather and Bajaj, 1999; Mather et al., 1997). The reactions were carried out as described for the EC50 experiments above except dEGR-IXa and IXaWT were mixed prior to addition of the A2 subunit; this ensured steady state conditions. Mixtures contained 100 nM IXaWT, 30 nM A2 subunit, 250 nM factor X, 25 μM PL, and various concentrations of dEGR-IXa proteins in TBS/BSA, pH 7.5 containing 5 mM CaCl2. The IC50 (concentration of inhibitor required for 50% inhibition) was determined by fitting the data to the IC50 four-parameter logistic equation of Halfman (1981) given below (Eq. 2). [formula]
where y is the rate of Xa formation in the presence of a given concentration of dEGR-IXa protein represented by x, a is the maximum rate of factor Xa formation in the absence of dEGR-IXa, and s is the slope factor. Each point was weighted equally, and the data were fitted to Equation 2 using the nonlinear regression analysis program GraFit from Erithacus Software. […] To obtain KdA2 values for the interaction of dEGR-IXa proteins with A2, we used the following equation (Eq. 3) as described by Cheng and Prusoff (1973) and further elaborated by Craig (1993). [formula]
where A is the concentration of IXaWT, and EC50 is the concentration of factor IXaWT that gives a 50% maximum response in the absence of the competitor at a specified concentration of factor X used in the experiment.

For data set [2], the system named is T2, A2 subunit of factor VIIIa.
T2 sequence: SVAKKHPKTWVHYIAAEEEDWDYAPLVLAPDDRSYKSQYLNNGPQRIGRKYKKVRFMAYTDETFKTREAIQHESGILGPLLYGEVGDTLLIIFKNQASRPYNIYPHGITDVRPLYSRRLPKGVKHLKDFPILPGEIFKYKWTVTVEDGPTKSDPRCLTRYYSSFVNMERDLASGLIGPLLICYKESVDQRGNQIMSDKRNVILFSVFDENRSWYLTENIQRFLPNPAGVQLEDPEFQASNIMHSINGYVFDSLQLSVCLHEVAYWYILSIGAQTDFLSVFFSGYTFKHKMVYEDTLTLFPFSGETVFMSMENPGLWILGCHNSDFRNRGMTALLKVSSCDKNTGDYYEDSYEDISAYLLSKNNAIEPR

Data set [3] addresses A2 subunit of factor VIIIa (human) (UniProt P00451). As to the kind of experiment: factor Xa generation at rising A2 subunit, 5 nM IXa; factor X <150 nM; functional Kd.
For data set [4] the target is unchanged. As to the kind of experiment: factor Xa generation at rising A2 subunit, 5 nM IXa; factor X >1 µM; functional Kd.
Data set [5] shares this target. Description: potentiation of factor X activation by A2 subunit (FIGS. 1 and 2); functional Kd.
Data set [6] has as its target T3, dEGR-IXaVIIhelix (factor IXaVIIhelix inactivated with dansyl-Glu-Gly-Arg-chloromethyl ketone) (human, UniProt P08709 364-372, active site inactivated with dansyl-Glu-Gly-Arg-chloromethyl ketone (dEGR-ck); gamma-carboxyglutamic acid residues in the Gla domain (normal Gla content)).
T3 construct: domain: helix c162-170; also called dEGR-IXVIIhelix
Description: dEGR-IXa competition with 100 nM IXaWT for 30 nM A2 in tenase assay (FIG. 3); apparent KdA2.

The target of data set [7] is T4, dEGR-IXaWT (factor IXaWT inactivated with dansyl-Glu-Gly-Arg-chloromethyl ketone) (human, UniProt P00740 47-190; P00740 227-461, active site inactivated with dansyl-Glu-Gly-Arg-chloromethyl ketone (dEGR-ck); gamma-carboxyglutamic acid residues in the Gla domain (normal Gla content)).
T4 construct: also called dEGR-IXWT
Description: dansyl fluorescence quenching, 220 nM dEGR-IXa titrated with A2 subunit, bimolecular association fit (FIG. 4). On the procedure:
(§1) The effect of the A2 subunit on the emission intensity of the dansyl moiety in each dEGR-IXa protein was determined using the SLM AB2 spectrofluorometer. Each reaction mixture contained 220 nM dEGR-IXa in 20 mM Hepes, pH 7.2, 100 mM NaCl, 5 mM CaCl₂, 0.01% Tween, 200 μg/ml BSA and 100 μM PL vesicles. The excitation wavelength was 340 nm (slit width, 8 nm) and the emission wavelength was 540 nm (slit width; 8 nm). First, blank values (in triplicate) were obtained for the buffer containing PL. dEGR-IXa was then added and the emission intensity in the absence of the A2 subunit was recorded. Each reaction mixture was subsequently titrated with the A2 subunit and the emission readings (in triplicate) were obtained at each time point. The fluorescence emission intensity at each point was corrected for increases in the reaction volume prior to analysis of the data. […] Data are presented as F/F₀ where F₀ is the emission intensity in the absence of A2 subunit and F is the intensity at a given A2 subunit concentration.

For data set [8], the target named is T5, dEGR-IXaPCEGF1 (factor IXaPCEGF1 inactivated with dansyl-Glu-Gly-Arg-chloromethyl ketone) (human, UniProt P04070 88-134, limits assumed, active site inactivated with dansyl-Glu-Gly-Arg-chloromethyl ketone (dEGR-ck); gamma-carboxyglutamic acid residues in the Gla domain (normal Gla content)).
T5 construct: domain: EGF1
The description is as above. Here is the method: as §1

Data set [9] addresses dEGR-IXaR333Q (factor IXaR333Q inactivated with dansyl-Glu-Gly-Arg-chloromethyl ketone) (human, UniProt P00740 47-190; P00740 227-461, active site inactivated with dansyl-Glu-Gly-Arg-chloromethyl ketone (dEGR-ck); gamma-carboxyglutamic acid residues in the Gla domain (normal Gla content)). As to the kind of experiment: dEGR-IXa competition with 100 nM IXaWT for 30 nM A2 in tenase assay (FIG. 3); IC50 converted by Cheng-Prusoff; apparent KdA2.

Data set [10] addresses T4, dEGR-IXaWT (factor IXaWT inactivated …). The description is as above.
Data set [11] addresses T5, dEGR-IXaPCEGF1 (factor IXaPCEGF1 …). The description is as above.

T4 sequence (P00740 47-190, form in doubt, chain 1 of 2): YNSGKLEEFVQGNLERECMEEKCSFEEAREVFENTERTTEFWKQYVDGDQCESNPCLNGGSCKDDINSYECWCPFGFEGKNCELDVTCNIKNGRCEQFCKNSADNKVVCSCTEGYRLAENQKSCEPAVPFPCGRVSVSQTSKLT
T4 sequence (P00740 227-461, form in doubt, chain 2 of 2): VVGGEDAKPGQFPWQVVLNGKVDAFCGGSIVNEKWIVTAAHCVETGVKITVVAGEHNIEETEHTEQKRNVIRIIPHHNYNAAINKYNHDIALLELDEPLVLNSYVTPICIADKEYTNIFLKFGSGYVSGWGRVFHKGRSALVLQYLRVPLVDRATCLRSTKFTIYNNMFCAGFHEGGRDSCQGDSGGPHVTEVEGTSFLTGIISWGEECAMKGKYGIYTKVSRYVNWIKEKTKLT
T5 sequence (P04070 other isoform, or with tags, fused parts or gaps limits assumed, form in doubt, chain 1 of 2): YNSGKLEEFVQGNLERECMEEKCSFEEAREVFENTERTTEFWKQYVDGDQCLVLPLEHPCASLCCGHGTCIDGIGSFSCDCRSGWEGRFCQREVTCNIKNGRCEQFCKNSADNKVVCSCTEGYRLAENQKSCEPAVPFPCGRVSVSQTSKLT
T5 sequence (heavy, as listed by the source limits assumed, form in doubt, chain 2 of 2): as the sequence (P00740 227-461, form in doubt, chain 2 of 2) above
Chain of dEGR-IXaR333Q (factor IXaR333Q inactivated with dansyl-Glu-Gly-Arg-chloromethyl ketone) (P00740 47-190, form in doubt, chain 1 of 2): as the sequence (P00740 47-190, form in doubt, chain 1 of 2) above
Chain of dEGR-IXaR333Q (factor IXaR333Q inactivated with dansyl-Glu-Gly-Arg-chloromethyl ketone) (P00740 227-461 R379Q, form in doubt, chain 2 of 2): as the sequence (P00740 227-461, form in doubt, chain 2 of 2) above, with R153Q counted along it
T3 sequence (light, as listed by the source limits assumed, form in doubt, chain 1 of 2): as the sequence (P00740 47-190, form in doubt, chain 1 of 2) above
T3 sequence (heavy, as listed by the source limits assumed, form in doubt, chain 2 of 2): as the sequence (P00740 227-461, form in doubt, chain 2 of 2) above, with L150R, V151L, D152M, R153T, A154Q, T155D, R158Q counted along it

As to “dEGR-IXaPCEGF1: IXaPCEGF1 inactivated with dEGR-ck”, in [1], the Kd was around 100 nM. In the case of “dEGR-IXaR333Q: IXaR333Q inactivated with dEGR-ck”, the Kd in data set [1] is around 1800 nM. Consider “dEGR-IXaWT: IXaWT inactivated with dansyl-Glu-Gly-Arg-chloromethyl ketone (dEGR-ck)”, for which, in [1], the Kd was around 100 nM. “factor IXaPCEGF1 (factor IXa replacement mutant in which the EGF1 domain is replaced by that of protein C)”: in data set [2], the “enhancement of factor X activation (factor Xa generation, S-2222 hydrolysis)” value (shortened to “enhancement of factor X activation”) is “The presence of the A2 subunit in the reaction mixtures enhanced the factor X-activating activity of IXaPCEGF1 to the same extent as that of IXaWT”. What is called EC50 is the concentration needed to bring the measured effect to its halfway point. In the case of “factor IXaPCEGF1 (factor IXa replacement mutant in which the EGF1 domain is replaced by that of protein C) (from UniProt P04070 88-134) (enzyme)”, the concentration giving a half-maximal response (EC50) in data set [3] was found to be 300 nM; in [4], 200 nM; in data set [5] it was 250 nM. Regarding “factor IXaVIIhelix (factor IXa replacement mutant in which helix 330-338 (c162-170) is replaced by that of factor VII)”, the “enhancement of factor X activation” value in data set [2] was “it was absent for the IXaVIIhelix”.

Regarding “factor IXaWT (wild-type recombinant factor IX activated by factor XIa)”, the “enhancement of factor X activation” value in [2] is recorded as “The presence of the A2 subunit in the reaction mixtures enhanced the factor X-activating activity of IXaPCEGF1 to the same extent as that of IXaWT”.

B1: A2 subunit of factor VIIIa (other)
chain: SVAKKHPKTWVHYIAAEEEDWDYAPLVLAPDDRSYKSQYLNNGPQRIGRKYKKVRFMAYTDETFKTREAIQHESGILGPLLYGEVGDTLLIIFKNQASRPYNIYPHGITDVRPLYSRRLPKGVKHLKDFPILPGEIFKYKWTVTVEDGPTKSDPRCLTRYYSSFVNMERDLASGLIGPLLICYKESVDQRGNQIMSDKRNVILFSVFDENRSWYLTENIQRFLPNPAGVQLEDPEFQASNIMHSINGYVFDSLQLSVCLHEVAYWYILSIGAQTDFLSVFFSGYTFKHKMVYEDTLTLFPFSGETVFMSMENPGLWILGCHNSDFRNRGMTALLKVSSCDKNTGDYYEDSYEDISAYLLSKNNAIEPR
notes: also called isolated A2 subunit
In the case of B1, the Kd was above 1000 nM in data set [6]; around 100 nM in data set [7]; around 100 nM in data set [8]; 1850 nM in data set [9]; 100 nM in [10]; 114 nM in data set [11].
